Laboratory results published in publication PMC3836970.

Experiments:
[1] = biological target: Streptomyces phage φBT1 integrase (Streptomyces phage φBT1)
[2] = biological target: Gp3 of Streptomyces phage φBT1 (recombination directionality factor, excisionase) (Streptomyces phage φBT1); test: cross-linking; purified proteins, alone or mixed, incubated with or without dimethyl suberimidate (DMS), analysed by SDS-PAGE
[3] = biological target: Streptomyces phage φBT1 integrase (Streptomyces phage φBT1); test: as above

| Substance | quantitative in vitro recombination (blue-white screen, white colonies): excision between attL and attR with integrase and Gp3 [1] [%] | quantitative in vitro recombination (blue-white screen, white colonies): integration between attB and attP in the presence of Gp3 (more than 90% without Gp3) [1] [%] | stoichiometry N [2] | stoichiometry N [3] |
| --- | --- | --- | --- | --- |
| Gp3 of Streptomyces phage φBT1 (recombination directionality factor, excisionase) (natural protein) | 89 | 2 | 2 | – |
| Streptomyces phage φBT1 integrase (enzyme) | – | – | – | 2 |
